According to article PMC4692269:

What was measured:
[1] = target: BG505 SOSIP.664 trimer, wild type, produced in 293S cells (HIV-1 (clade A strain BG505)) (UniProt Q2N0S6); test: ITC
[2] = target: BG505 SOSIP.664-N137A trimer, produced in 293S cells (HIV-1 (clade A strain BG505)); test: ITC

Row | Molecule | Kd [1] | fold higher affinity against 32H+3L on the same trimer [1] | fold enhanced affinity against its binding to the wild-type trimer [2] | Kd [2]
1 | PGT124 (mature bnAb of the PGT121 family) (Fab) | 32 nM | 13 fold |  | 
2 | 9H+3L Fab (inferred intermediate of the PGT122 branch) (Fab, V domains shown) VH: QVQLQESGPGLVKPSETLSLTCSVSGASISDHYWSWIRQSPGKGLEWIGYVYDSGDTNYNPSLKSRVNLSLDTSKNQVSLSLTAVTAADSAIYYCARTQHGRRIYGIVAFREWFTYFYMDVWGQGTPVTVSS VL: SYVLTQPSQLSVAPGETARISCGGRSLGSRAVQWYQQKPGQAPVLVIYNNQDRPSGIPERFSGSPDSNFGTTATLTISRVEAGDEADYYCHMWDSRSAINWVFGGGTKLTVL |  |  | 11 fold | 
3 | 3H+3L Fab (inferred early precursor of the PGT121 family) (Fab, V domains shown) VH: QVQLQESGPGLVKPSETLSLTCTVSGGSISNYYWSWIRQSPGKGLEWIGYISDSESTNYNPSLKSRVIISVDTSKNQLSLKLNSVTAADSAIYYCARAQQGKRIYGMVSFGEFFYYYYMDVWGKGTTVTVSS VL: SYVLTQPSQLSVAPGETARISCGGRSLGSRAVQWYQQKPGQAPVLVIYNNQDRPSGIPERFSGSPDSNFGTTATLTISRVEAGDEADYYCHMWDSRSAINWVFGGGTKLTVL |  |  | 15 fold | 35 nM
4 | PGT124 (mature bnAb of the PGT121 family) (Fab, V domains shown) VH: QVQLQESGPGLVRPSETLSVTCIVSGGSISNYYWTWIRQSPGKGLEWIGYISDRETTTYNPSLNSRAVISRDTSKNQLSLQLRSVTTADTAIYFCATARRGQRIYGVVSFGEFFYYYYMDVWGKGTAVTVSS VL: SYVSPLSVALGETARISCGRQALGSRAVQWYQHKPGQAPILLIYNNQDRPSGIPERFSGTPDINFGTTATLTISGVEVGDEADYYCHMWDSRSGFSWSFGGATRLTVL |  |  | 5 fold | 
5 | 32H+3L Fab (inferred intermediate of the PGT124 branch) (Fab, V domains shown) VH: QVQLQESGPGLVKPSETLSVTCIVSGGSISNYYWTWIRQSPGKGLEWIGYISDRETTTYNPSLKSRVVISRDTSKNQLSLKLNSVTAADTAIYYCATARRGQRIYGVVSFGEFFYYYYMDVWGKGTAVTVSS VL: SYVLTQPSQLSVAPGETARISCGGRSLGSRAVQWYQQKPGQAPVLVIYNNQDRPSGIPERFSGSPDSNFGTTATLTISRVEAGDEADYYCHMWDSRSAINWVFGGGTKLTVL |  |  | 16 fold | 
